Here are results for 2 molecules from patent US5336488A, “Method of treating or preventing mastitis in animals with involuting mammary glands by administering recombinant cytokines” (American Cyanamid Company, priority 1992, dated 1994).

Series [1] concerns milk PMNs. The experiment in a line: Inducible superoxide of milk PMNs after PMA stimulation (cytochrome-c reduction). It is filed as in vivo, bovine (Holstein dairy cattle). The protocol: FIGS. 2(A-I): Quantity and Quality of Milk PMNs from Mammary Glands Infused with r-BolL-1 or r-BoIL-2
A total of 12 mammary glands from normal lactating Holstein dairy cattle are infused through the teat canal with either 200 μg of r-BoIL-1; 2 mg of r-BoIL-2; or 1 mg of r-BoGM-CSF. Milk samples are collected and the number of viable somatic cells counted on a Coulter® ZM with a C256 Channelyzer. The data is expressed as the somatic cell count per ml of milk sampled at 16, 40, 64 and 88 hours after infusion for r-BoIL-1 (A); r-BoIL-2 (D); or r-BoGM-CSF(G). The total percentage of phagocytosis by milk PMNs (polymorphonuclear cells) is quantitatively measured by flow cytometry by measuring the percentage of cells ingesting 2μ fluorescent beads for r-BoIL-1 (B); r-BoIL-2(E); or r-BoGM-CSF(H). The total population is first gated by forward angle light scatter, FALS and 90° light scatter to only consider viable polymorphonuclear cells. The induction of superoxide after PMA (520.eta.g)stimulation is also monitored using a whole cell cytochrome-c reduction assay, for r-BoIL-1 (C); r-BoIL-2(F); or r-BoGM-CSF(I). PMNs from untreated milk could not be induced to produce superoxide, while peripheral blood PMNs are inducible in a range of 5-15 .eta.M O2 /Minute/10^7 PMNs.

The nature of series [2]: Milk production in lactations immediately following dry cow therapy. It is filed as in vivo, bovine (dairy cows). The conditions noted are these: FIG. 6. The method, then:
FIG. 6: Milk Production Early in Lactation Before and After Intramammary Infusion of r-BoIL-2 as a Dry Cow Therapy
Mean milk production in kilograms; (S.D.) is shown for 4 cows for the first six days after the initiation of lactation for the lactation immediately prior to treatment and immediately following treatment. Production after r-BoIL-2 treatment or for the same time period for the lactation prior to treatment is monitored. Total dose of r-BoIL-2 received by each treated cow is 2 mg. Three cows are completing their second lactation and one is completing its third lactation at the time of r-BoIL-2 therapy. Post-treatment production from initiation of the third or fourth lactation is compared to the production for the first 6 days after initiation of the second or third lactation (pre-treatment) respectively of the same animals .
The effects of r-BoIL-2 on possible milk production after dry-cow therapy are also evaluated. Milk production for three dairy cows for the first five days of the lactation cycle (second or third lactation) prior to r-BoIL-2 treatment is compared to the milk production for the first five days of the lactation cycle (third or fourth lactation) immediately following r-BoIL-2 treatment, FIG. 6.

For series [3], the system named is Bovine Mammary Gland. As to the kind of experiment: Dose response of bovine mammary gland to intramammary infusion: somatic cell influx into milk. It is filed as in vivo, bovine (Holstein dairy cattle). The conditions noted are these: for infiltration of somatic cells into the milk: lactating cattle, FIG. 1; for minimal effective dose: somatic cell influx. The protocol:
FIG. 1: Dose Response of Bovine Mammary Gland to Intramammary Infusion of Recombinant Cytokines
Five fold serial dilutions of r-BolL-1 (recombinant bovine interleukin-1) from 312.5 μg to […]: r-BoIL-2 (recombinant bovine interleukin-2) from 40 mg to 0.1 mg: and r-BoGM-CSF (recombinant bovine granulocyte macrophage colony stimulating factor) from 0.2 mg to […] are administered at time 0 into 3-4 mammary glands from normal lactating Holstein dairy cattle. A total of 54 mammary gland quarters, 3-4 per group, are infused through the teat canal with various concentrations of recombinant bovine cytokines after the morning milking. Milk samples are collected and the number of viable somatic cells counted on a Coulter® ZM with a C256 Channelyzer. The data is expressed as the somatic cell count per ml of milk
These doses are guidelines for quantitative induction of somatic cells, but significant beneficial qualitative changes can be induced with lower doses. The specific biological activity for r-BoIL-1 as a chemoattractant is approximately 10,000 fold greater than r-BoIL-2, although the in vitro specific bioactivities are equivalent. Active IL-2 inhibition or decreased biostability in milk might explain this discrepancy. The peak number of cells after r-BoIL-1 infusion with a maximal tolerable dose is 4-5 fold greater than r-BoIL-2. The kinetics of PMN migration into the mammary gland is such that migration occurs 8- 24 hours sooner for r-BoIL-1 infusions […] the BolL-2 infusion depending upon the dose. The dominant cell type after r-BoIL-1 or r-BoIL-2 infusion is PMNs.

For series [4], the system named is PMNs from mammary glands early in involution. The experiment in a line: Phagocytic activity of cells from dry cow secretions after cytokine treatment. The conditions noted are these: treatment with IL-2. It counts as in vivo, bovine (Holstein dairy cattle). The protocol: FIG. 5: Phagocytic Ability of PMNs After Cytokine Administration from Mammary Glands Early in Involution
A total of 4 mammary glands from 2 Holstein dairy cattle just entering the dry period are used. All quarters had been infected with S. aureaus for 4-6 weeks prior to treatment. Two of the quarters are treated with Cefa-Dri® and 2 quarters are treated with Cefa-Dri®+1 mg bovine IL-2 by intramammary infusion immediately following the last milking prior to drying-off. Dry cow secretions are then collected at day 3 and day 6 of the dry-off period and the number of viable somatic cells counted on a Coulter® with a C256 Channelyzer. The total percentage of phagocytosis by PMNs is quantitatively measured by flow cytometry by measuring the percentage of cells ingesting 2μ fluorescent beads.
Somatic cells are isolated from mammary gland lavages on days 3 and 6 after treatment with Cefa-Dri® plu6 IL-2 or Cefa-Dri® alone. The cells are incubated with fluorescent latex micropheres and analyzed on the flow cytometer for their ability to phagocytize the beads.

B1: recombinant bovine interleukin-2 (protein, UniProt P05016 21-155, looked up)
Interleukin-2: APTSSSTGNTMKEVKSLLLDLQLLLEKVKNPENLKLSRMHTFDFYVPKVNATELKHLKCLLEELKLLEEVLNLAPSKNLNPREIKDSMDNIKRIVLELQGSETRFTCEYDDATVNAVEFLNKWITFCQSIYSTMT
notes: recombinant bovine interleukin-2, obtained from IMMUNEX Corp. Seattle, WA
For B1, in series [1] (2 mg r-BoIL-2, FIG. 2F), the “inducible superoxide, duration” value is recorded as “remains throughout the 96 hours of sampling”. The inducible superoxide result in series [1] (2 mg r-BoIL-2, vs resident PMNs, FIG. 2F) is listed as “significantly increased over the resident PMNs”. Moreover, in series [2] (first five days of lactation vs prior lactation), the “improvement in milk production at the following lactation” value is 80%. Also, the “inhibition of milk production at the following lactation” value in series [2] (first five days of lactation) is given as “No inhibition of milk production”. For the same molecule, in series [3] (intramammary infusion), the “dominant cell type after infusion” value is “PMNs”, the maximal tolerable dose came to 30 mg, the “infiltration of somatic cells into the milk” value is reported as “induce an infiltration of somatic cells into the milk in a dose related manner” and the minimal effective dose is reported as 0.5 mg. Moreover, in series [4], the “phagocytic activity of cells of the dry gland” value was “seems to enhance the phagocytic activity of cells of the dry gland”.

B2: recombinant bovine interleukin-1 (protein, UniProt P09428 114-266, looked up)
Interleukin-1 beta: APVQSIKCKLQDREQKSLVLASPCVLKALHLLSQEMNREVVFCMSFVQGEERDNKIPVALGIKDKNLYLSCVKKGDTPTLQLEEVDPKVYPKRNMEKRFVFYKTEIKNTVEFESVLYPNWYISTSQIEERPVFLGHFRGGQDITDFRMETLSP
notes: recombinant bovine interleukin-1, obtained from IMMUNEX Corp. Seattle, WA
Take B2: the “inducible superoxide upon phorbol ester stimulation” value in series [1] (200 μg r-BoIL-1, vs resident PMNs, FIG. 2C) is “significantly increased over the resident PMNs”. For the same molecule, in series [3] (depending upon the dose), the “PMN migration into the mammary gland occurs sooner than with BoIL-2 infusion” value was in the range of 8 to 24 h. Also, in series [3] (intramammary infusion), the “dominant cell type after infusion” value is recorded as “PMNs”, the maximal tolerable dose stood at 1000 mg, the “infiltration of somatic cells into the milk” value is “induce an infiltration of somatic cells into the milk in a dose related manner” and the minimal effective dose was determined as 0.5 mg. Also, the “specific biological activity as a chemoattractant, greater than r-BoIL-2” value in series [3] (intramammary infusion, relative to r-BoIL-2) is listed as “approximately 10,000 fold”. Further, the “peak number of cells after infusion, greater than r-BoIL-2” value in series [3] (maximal tolerable dose, relative to r-BoIL-2) was 4-5 fold.
